Data from publication PMC9758055.

Key:
[1] = target: SNAPC1;SNAPC3;SNAPC4 1-516;SNAPC5;TBP;TFIIB (Homo sapiens;Homo sapiens;Homo …, UniProt Q16533;Q92966;Q5SXM2;O75971;P20226;Q00403 1-368;1-411;1-516;1-98;1-339;1-316, |||||); assay: EMSA; SNAPc-core with TBP and TFIIB; EMSA: 250 mM NaCl, 50 mM HEPES pH 7.9, 20% glycerol, 1 mM TCEP, room temperature 15 min; 20 pM SNAPc, 5 pM DNA, 25 pM TBP/TFIIB (units as printed). Cryo-EM: ass; conditions: protein: recombinant;recombinant;recombinant;recombinant;recombinant;recombinant; tags: ;;;;;; copies: 1;1;1;1;1;1; blunt
[2] = target: SNAPC1;SNAPC3;SNAPC4 1-516;SNAPC5 (Homo sapiens;Homo sapiens;Homo …, UniProt Q16533;Q92966;Q5SXM2;O75971 1-368;1-411;1-516;1-98, |||); assay: EMSA; SNAPc-core alone; EMSA: 250 mM NaCl, 50 mM HEPES pH 7.9, 20% glycerol, 1 mM TCEP, room temperature 15 min; 20 pM SNAPc, 5 pM DNA, 25 pM TBP/TFIIB (units as printed). Cryo-EM: ass; conditions: protein: recombinant;recombinant;recombinant;recombinant; tags: ;;;; copies: 1;1;1;1; blunt
[3] = target: SNAPC1;SNAPC2;SNAPC3;SNAPC4 full length;SNAPC5;TBP;TFIIB (Homo sapiens;Homo sapiens;Homo …, UniProt Q16533;Q13487;Q92966;Q5SXM2;O75971;P20226;Q00403 …, ||||||); assay: EMSA; SNAPc-FL with TBP and TFIIB; EMSA: 250 mM NaCl, 50 mM HEPES pH 7.9, 20% glycerol, 1 mM TCEP, room temperature 15 min; 20 pM SNAPc, 5 pM DNA, 25 pM TBP/TFIIB (units as printed). Cryo-EM: ass; conditions: protein: recombinant;recombinant;recombinant;recombinant;recombinant;recombinant;recombinant; tags: ;;;N-terminal StrepTwin, C-terminal His;;;; copies: 1;1;1;1;1;1;1; blunt
[4] = target: SNAPC1;SNAPC2;SNAPC3;SNAPC4 full length;SNAPC5 (Homo sapiens;Homo sapiens;Homo …, UniProt Q16533;Q13487;Q92966;Q5SXM2;O75971 1-368;1-334;1-411;1-1469;1-98, ||||); assay: EMSA; SNAPc-FL alone; EMSA: 250 mM NaCl, 50 mM HEPES pH 7.9, 20% glycerol, 1 mM TCEP, room temperature 15 min; 20 pM SNAPc, 5 pM DNA, 25 pM TBP/TFIIB (units as printed). Cryo-EM: ass; conditions: protein: recombinant;recombinant;recombinant;recombinant;recombinant; tags: ;;;N-terminal StrepTwin, C-terminal His;; copies: 1;1;1;1;1; blunt
[5] = target: SNAPC1;SNAPC3;SNAPC4 1-516;SNAPC5;TBP;TFIIB;TFIIA;TFIIF;RNA polymerase II (Homo sapiens;Homo sapiens;Homo …, UniProt Q16533;Q92966;Q5SXM2;O75971;P20226;Q00403;P52655;P52657;P35269;P13984;A0A8D1DPV6 …, ||||||||); assay: cryo-EM; closed complex; GraFix; TFIIE added in assembly; Zn2+ in SNAPC3; EMSA: 250 mM NaCl, 50 mM HEPES pH 7.9, 20% glycerol, 1 mM TCEP, room temperature 15 min; 20 pM SNAPc, 5 pM DNA, 25 pM TBP/TFIIB (units as printed). Cryo-EM: ass; conditions: tags: ;;;;;;;;; copies: 1;1;1;1;1;1;1;1;1;1;1;1;1;1;1;1;1;1;1;1;1;1; blunt
[6] = target: SNAPC1;SNAPC3;SNAPC4 1-516;SNAPC5;TBP;TFIIB;TFIIA (Homo sapiens;Homo sapiens;Homo …, UniProt Q16533;Q92966;Q5SXM2;O75971;P20226;Q00403;P52655;P52657 …, ||||||); assay: cryo-EM; local map of SNAPc-containing upstream complex; GraFix; EMSA: 250 mM NaCl, 50 mM HEPES pH 7.9, 20% glycerol, 1 mM TCEP, room temperature 15 min; 20 pM SNAPc, 5 pM DNA, 25 pM TBP/TFIIB (units as printed). Cryo-EM: ass; conditions: protein: recombinant;recombinant;recombinant;recombinant;recombinant;recombinant;recombinant; tags: ;;;;;;; copies: 1;1;1;1;1;1;1;1; blunt

Measured: binding result

B1: U1 promoter EMSA fragment (76 bp) (dsDNA)
DNA 1: GAAACGTTGTGCCTCTGCCCCGACACAGCCTCATACGCCTCACTCTTTACACACACGGTCACTTGCCCCGCGCACT
DNA 2: AGTGCGCGGGGCAAGTGACCGTGTGTGTAAAGAGTGAGGCGTATGAGGCTGTGTCGGGGCAGAGGCACAACGTTTC
binds: [1] | [2] | [3] | [4]

B2: U5 promoter EMSA fragment (75 bp) (dsDNA)
DNA 1: ACCAGTTACTTCTGTAACTCAATTTTCGGGTAACTGCAATTCCTAGTACACTGATGGTGTCTACTAATCCCAAGG
DNA 2: CCTTGGGATTAGTAGACACCATCAGTGTACTAGGAATTGCAGTTACCCGAAAATTGAGTTACAGAAGTAACTGGT
binds: [1] | [2] | [3] | [4]

B3: engineered U5 promoter cryo-EM scaffold (96 bp) (dsDNA)
DNA 1: AGTAGACACCATCAGTGTACTAGGACCCGAAAATTGAGTTACAGAAGTAACTGGTATACTCTGGTTTCTCTTCAGATCGCATAAAACCTGGCAGGG
DNA 2: CCCTGCCAGGTTTTATGCGATCTGAAGAGAAACCAGAGTATACCAGTTACTTCTGTAACTCAATTTTCGGGTCCTAGTACACTGATGGTGTCTACT
binds: [5] | [6]
